Patent publication US20230322924A1 (Janssen / Centocor, published 2023)
Changes are numbered by the printed parent chain. Names and notes keep the numbering of the source.

B1: C33B122 (antibody, IgG1, V domains shown)
VH: QLQLQESGPGLVKPSETLSLTCTVSGGSIRSSSYYWGWIRQPPGKGPEWIGSIYSSGNTYYNPSLKSRVTISVDTSKNQFSLKLISMTAADTAVFYCARLAATIVVPAARYFDCWGQGTLVTVSS
VL: SYELTQPPSVSVSPGQTVSISCSGDRLGDKYACWYQQKPGQSPVLVIYQDSKRPSGIPERFSGSNSGNTATLTISGTQAMDEADYYCQAWDSSSYVFGTGTKVTVL
notes: huIgG1 F405L; also called C33F127; C33H92/C33L30
B2: C33B101 (antibody, V domains shown)
VH: QLQLQESGPGLVKPSETLSLTCTVSGGSISSSSYYWGWIRQPPGKGLDWIGSINYSGSTYYNPSLKSRVTISVDTSKIQFSLKLRSVTAADTAVYYCARLDGYESPFDYWGQGTLVTVSS
VL: DIQMTQSPSSVSASVGDRVTITCRASQGISSWLAWYQQKPGKAPKLLIYAASSLQSGVPSRFSGSGSGTDFTLTISSLQPEDFATYYCQQANSFPFTFGPGTKVDIK
notes: huIgG1 F405L; 260 is used; also called C33F106; C33H69/C4LL152
B3: C33B61 (antibody, V domains shown)
VH: QLQLQESGPGLVKPSETLSLTCTVSGGSIRSTNYYWGWIRQPPGKGLEWIGTIYYSGNTYYNPSLKSRVTISVDTSKNQFSLKLSSVTAADTAVYYCARLADVVVVPAARYFDYWGQGILVTVSS
VL: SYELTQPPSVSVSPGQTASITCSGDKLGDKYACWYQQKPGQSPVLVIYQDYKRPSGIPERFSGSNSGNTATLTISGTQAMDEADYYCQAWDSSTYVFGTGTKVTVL
notes: huIgG1 F405L; also called C33F66; C33H48/C33L58
B4: C33B123 (antibody, IgG1, V domains shown)
VH: B3 VH with R30S, T32R, N33S, Y34H, K45V, T52S, S56T, N58S, V103I, I119T
VL: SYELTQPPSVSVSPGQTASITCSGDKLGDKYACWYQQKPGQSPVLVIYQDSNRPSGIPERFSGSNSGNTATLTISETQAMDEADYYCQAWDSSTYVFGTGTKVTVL
notes: huIgG1 F405L; also called C33F128; C33H91/C33L44
B5: C33B62 (antibody, IgG1, V domains shown)
VH: B3 VH with T32S, N33G, Y34F, G44R, Y96F, Y114N, I119T
VL: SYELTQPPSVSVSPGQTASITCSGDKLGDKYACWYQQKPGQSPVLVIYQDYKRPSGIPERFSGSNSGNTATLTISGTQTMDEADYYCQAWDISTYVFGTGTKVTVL
notes: huIgG1 F405L; also called C33F67; C33H49/C33L59
B6: C33B66 (antibody, IgG1, V domains shown)
VH: QVQLQESGPGLVKPSGTLSLTCAVSGGSISSSNWWSWVRQPPGRGLEWIGEIYHSGNTNNSPSLKSRVTISADKSKNQFSLKLSSVTAADTAVYFCARIIAVARYFDSWGQGTLVTVSS
VL: SYVLTQPPSVSVAPGQTARITCGGNNIGIKSVHWYQQKPGQAPVLVVYDDSDRPPGIPERFSGSNSGNTATLTITRVEAGDEADYYCQVWDSSSDHVVFGGGTKLTVL
notes: huIgG1 F405L; also called C33F71; C33H55/C33L42
B7: C33B48 (antibody, IgG1, V domains shown)
VH: QVQLVQSGSELRKPGASVKVSCKASGYTFTNYAMNWVRQAPGQGLEWMGWINTNTGNPTYAQGFTGRFVFSLDTSVSSAYLQISSLKAEDTAMYYCATDRDRGTDYWGQGTLVTVSS
VL: QSALTQPASVSGSPGQSITISCTGTSSDVGDYNYVSWYQQHPGKVPKLMIYDVSNRPSGVSNRFSGSMSGNTASLTISGLQAEDEADYYCSSYSSSSALEVFGGGTKLTVL
notes: huIgG1 F405L; also called C33F53; C33H80/C33L73
B8: C33B46 (antibody, IgG1, V domains shown)
VH: B7 VH with R12K, T30S, N31T, S78T, M93V, T98R
VL: B7 VL with Y32D, V45A, M68K, A82S, S97T, A98T
notes: huIgG1 F405L; also called C33F51; C33H108/C33L74

Experiments:
Human CD33 ECD-HSA [1] = target: Human CD33 ECD-HSA (human); experiment: SPRi off-rate screen (IBIS MX96), mAb captured by anti-human Fc; column head prints KD
Sequence of Human CD33 ECD-HSA (human) (chain, as listed by the source): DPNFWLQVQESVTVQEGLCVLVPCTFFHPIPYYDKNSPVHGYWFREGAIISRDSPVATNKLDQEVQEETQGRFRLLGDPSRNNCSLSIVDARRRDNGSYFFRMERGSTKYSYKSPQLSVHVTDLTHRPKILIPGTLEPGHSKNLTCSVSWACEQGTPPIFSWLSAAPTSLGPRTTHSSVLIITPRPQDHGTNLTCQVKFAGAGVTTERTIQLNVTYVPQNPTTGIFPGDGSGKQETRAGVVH
Method: (§1) To begin assessing the biophysical binding properties of the purified mAbs an off-rate screen was performed. 76 OMNIRat anti-CD33 mAbs were tested for binding to recombinant human CD33 ECD-HSA (C33W2) and cyno CD33 ECD-HSA (C33W1) proteins (Janssen production) and the off-rate was measured by IBIS MX96 SPRi array platform (Carterra; Newton, PA). […] The sensor chip was transferred to the Continuous Flow Microspotter (CFM) unit to capture each anti-CD33 mAb at 10 μg/ml for 10 minutes. Binding was measured on IBIS SPRi by single cycle kinetics without regeneration. […] The raw binding data (.trix file format) were referenced and aligned using SprintX software (Wasatch, Ver 1.9.3.2), then exported (.ibmx file format) to Scrubber software (Ver. 2.0) for 1:1 binding kinetic analyses (Wasatch, version 2.0.0.33) to extract the koff results.

[2] = target: T1, Human CD33 full length, expressed on HEK293F cells (human, UniProt P20138 18-364); experiment: flow cytometry, HEK293F cells expressing human CD33
T1 construct: HEK293F cells transduced with lentivirus containing full length human CD33; also called huCD33
T1 sequence (P20138 18-364 limits assumed): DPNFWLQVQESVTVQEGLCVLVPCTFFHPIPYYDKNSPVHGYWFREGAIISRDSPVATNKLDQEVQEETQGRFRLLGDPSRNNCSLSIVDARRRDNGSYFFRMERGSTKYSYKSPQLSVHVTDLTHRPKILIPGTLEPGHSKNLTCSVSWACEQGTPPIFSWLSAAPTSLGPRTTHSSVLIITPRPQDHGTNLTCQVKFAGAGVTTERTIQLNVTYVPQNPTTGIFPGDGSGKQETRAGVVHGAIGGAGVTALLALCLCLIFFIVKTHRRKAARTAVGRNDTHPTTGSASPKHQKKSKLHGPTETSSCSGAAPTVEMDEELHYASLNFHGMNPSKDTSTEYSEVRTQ
Method: (§2) OMNIRat antibodies identified via immunization, v-region cloned and subsequently expressed and purified were characterized further for binding to CD33 expressing cells and binding to recombinant antigens. The purified antibodies were assessed for binding to stably transfected HEK293F cells expressing human CD33 or cyno CD33 (generation described above) along with the parental HEK293F as negative control. Cells were harvested from tissue culture flasks using non-enzymatic dissociation buffer (Thermo Scientific). The flasks were rinsed twice with PBS and dissociation buffer was added to the flask, and the flask was incubated for 10 minutes at 37° C. until the cells became non-adherent. The cells were centrifuged at 300 g for 5 minutes and resuspended at 1.0×10⁶ cells/ml in staining buffer (Becton Dickinson; Franklin Lakes, NJ). 50,000 cells/well of each cell type was plated in 50 μl of staining buffer in round bottom plates (Becton Dickinson). […] 100 μl staining buffer was added to all wells of each plate, the plates were spun at 300 g for 5 min, the buffer was removed, 200 μl staining buffer was added to all wells of each plate, the plates were spun at 300 g for 5 min, and the buffer was removed. 50 μl of 2 μg/ml of Goat-anti-human Fc AF647 secondary antibody (Jackson Immunoresearch; West Grove, PA) was added to all wells of the plates, and the plates were incubated for 30 min at 4° C. 100 μl staining buffer was added to all wells of the plates, the plates were spun at 300 g for 5 min, and the buffer was removed. 200 μl running buffer (running buffer is Staining buffer, 1 mM EDTA, 0.1% Pluronic Acid) was added to all wells of the plates, the plates were spun at 300 g for 5 min, and the buffer was removed. 30 μl running buffer containing Sytox Green live/dead dye (ThermoFisher) was added to all wells with cells and the plates were read on an iQue IntelliCyt flow cytometer. Cells were gated on forward vs. side scatter to eliminate debris, then on singlets and then on live cells which excluded the Sytox stain. Antibody binding was assessed by the mean fluorescence intensity in the AF647 channel.

Human CD33 ECD-HSA [3] = target: Human CD33 ECD-HSA (human); experiment: ProteOn SPR, mAb captured by anti-human Fc, 1:1 Langmuir fit
Method: (§3) The panel of mAbs was then further characterized for full affinity analysis as well as epitope binning. The binding of anti-CD33 mAbs to recombinant human CD33 ECD-HSA (C33W2) and cyno CD33 ECD-HSA (C33W1) was measured by ProteOn SPR (Bio-Rad). […] Different mAbs were captured on the anti-human Fc IgG surface at 0.25 or 0.5 μg/ml (160-300 RU) in vertical ligand orientation, with the 6th ligand channel as no ligand surface control. Human and cyno CD33-HSA proteins at 0.3 μM concentration in 3-fold dilution series of 5 concentrations flew in as analyte to bind to captured mAbs in the horizontal orientation. A buffer sample was also injected in the 6th channel to monitor the dissociation of captured mAb and baseline stability. […] The raw biding data were processed by double referencing after subtracting the response data from: 1) the inter-spot to correct for the non-specific interactions between the Ag and the empty chip surface; 2) the buffer channel to correct for baseline drifting due to the dissociation of captured mAb surface over time. The processed data at all antigen concentrations for each mAb were globally fit to a 1:1 simple Langmuir binding model to extract estimates of the kinetic (kₒₙ, koff) and affinity (Kd) constants.

Cyno CD33 ECD-HSA [4] = target: T2, Cyno CD33 ECD-HSA (cynomolgus monkey); experiment: SPRi off-rate screen (IBIS MX96), mAb captured by anti-human Fc; column head prints Cyno CD33 binding KD
T2 construct: Cyno CD33 extracellular domain fused to monomeric human serum albumin and a six-histidine tag; also called C33W1
Method: as §1

[5] = target: T3, Cyno CD33 full length, expressed on HEK293F cells (cynomolgus monkey); experiment: flow cytometry, HEK293F cells expressing cyno CD33
T3 construct: HEK293F cells transduced with lentivirus containing full length cyno CD33 (Genbank XP_005590138.1); also called cyCD33
Method: as §2

Cyno CD33 ECD-HSA [6] = target: T2, Cyno CD33 ECD-HSA; experiment: ProteOn SPR, mAb captured by anti-human Fc, 1:1 Langmuir fit
Method: as §3

Binder	koff (Human CD33 ECD-HSA [1])	MFI at 0 nM mAb (background) [2]	MFI at 0.6 nM mAb [2]	MFI at 6 nM mAb [2]	MFI at 60 nM mAb [2]	Kd (Human CD33 ECD-HSA [3])	koff (Human CD33 ECD-HSA [3])	kon (Human CD33 ECD-HSA [3])	koff (Cyno CD33 ECD-HSA [4])	MFI at 0 nM mAb (background) [5]	MFI at 0.6 nM mAb [5]	MFI at 6 nM mAb [5]	MFI at 60 nM mAb [5]	Kd (Cyno CD33 ECD-HSA [6])	koff (Cyno CD33 ECD-HSA [6])	kon (Cyno CD33 ECD-HSA [6])
B1	0.00874 s⁻¹	65 MFI	14300 MFI	84300 MFI	259000 MFI	9.53 nM	0.00712 s⁻¹	747000 M⁻¹ s⁻¹	0.00145 s⁻¹	82.5 MFI	5840 MFI	13900 MFI	19700 MFI	–	–	–
B2	0.000398 s⁻¹	70.1 MFI	35500 MFI	205000 MFI	269000 MFI	6.64 nM	0.00108 s⁻¹	162000 M⁻¹ s⁻¹	0.000106 s⁻¹	79.7 MFI	18000 MFI	46100 MFI	48000 MFI	1.2 nM	0.000269 s⁻¹	225000 M⁻¹ s⁻¹
B3	0.00671 s⁻¹	79.8 MFI	5310 MFI	38700 MFI	199000 MFI	21.4 nM	0.0105 s⁻¹	489000 M⁻¹ s⁻¹	0.00183 s⁻¹	107 MFI	1600 MFI	8210 MFI	13600 MFI	2.21 nM	0.00162 s⁻¹	734000 M⁻¹ s⁻¹
B4	0.0103 s⁻¹	71 MFI	8860 MFI	88200 MFI	224000 MFI	14.8 nM	0.0152 s⁻¹	1.02e+06 M⁻¹ s⁻¹	0.00274 s⁻¹	61.1 MFI	3230 MFI	10400 MFI	10700 MFI	2.69 nM	0.00339 s⁻¹	1.26e+06 M⁻¹ s⁻¹
B5	0.01 s⁻¹	75 MFI	6090 MFI	37400 MFI	158000 MFI	24.9 nM	0.0126 s⁻¹	507000 M⁻¹ s⁻¹	0.00132 s⁻¹	934 MFI	1920 MFI	5620 MFI	12700 MFI	1.85 nM	0.00149 s⁻¹	805000 M⁻¹ s⁻¹
B6	0.000859 s⁻¹	130 MFI	56600 MFI	313000 MFI	445000 MFI	52.9 nM	0.00203 s⁻¹	38500 M⁻¹ s⁻¹	9.33e-05 s⁻¹	78 MFI	42200 MFI	49100 MFI	48900 MFI	0.217 nM	0.000266 s⁻¹	1.22e+06 M⁻¹ s⁻¹
B7	5.47e-05 s⁻¹	91.1 MFI	391000 MFI	429000 MFI	401000 MFI	0.0112 nM	1.82e-05 s⁻¹	1.62e+06 M⁻¹ s⁻¹	0.00012 s⁻¹	94 MFI	43400 MFI	47300 MFI	56500 MFI	0.0366 nM	0.000158 s⁻¹	4.31e+06 M⁻¹ s⁻¹
B8	0.000467 s⁻¹	135 MFI	418000 MFI	448000 MFI	510000 MFI	1.38 nM	0.00199 s⁻¹	1.45e+06 M⁻¹ s⁻¹	0.000148 s⁻¹	92 MFI	49700 MFI	49800 MFI	49800 MFI	0.126 nM	0.000375 s⁻¹	2.97e+06 M⁻¹ s⁻¹
